Assay [1] has as its target T1, human CLDN18.1 (claudin 18.1) (human, UniProt P56856 1-261).
T1 construct: whole, on cells; HEK293 hCLDN18.1); also called hCLDN18.1; CLDN18A1
Briefly: FACS on HEK293 hCLDN18.1 cells.
Experimental: (§1) The cell density was adjusted to 10⁶ cells/ml, and 50 μl of cell suspension was added to each well of a 96-well plate. Antibodies were diluted to different concentrations with FACS buffer and 50 μl of antibody dilution was added to each well of the 96-well plate. After incubation at 4° C. for 2 hours, the plate was washed 2 times with FACS buffer. […] After incubation at 4° C. for 1 hour, the plate was washed 2 times with FACS buffer. The cells were resuspended with fixative for monitoring the fluorescence of the cells using a FACS machine (ACEA NovoCyte).

Assay [2] deals with T2, human CLDN18.2 (claudin 18.2) (human).
T2 construct: HEK293 hCLDN18.2) or endogenously on NUGC4_D8 cells; also called hCLDN18.2; CLD18A2
Kind of assay: FACS on NUGC4_D8 cells.
Experimental: as §1

Assay [3] has as its target T2, human CLDN18.2 (claudin 18.2). Kind of assay: cell-based or functional assay.
For assay [4] the target is unchanged. Kind of assay: cell-based or functional assay. The source holds these as a separate data set.
The target is the same in assay [5]. Briefly: FACS on NUGC4_D8 cells endogenously expressing CLDN18.2.
Experimental: as §1
For assay [6] the target is unchanged. Briefly: FACS on HEK293 hCLDN18.2 cells, APC anti-human IgG secondary.
Experimental: as §1
The target is the same in assay [7]. Kind of assay: cell-based or functional assay. This is another data set of the same source.
For assay [8] the target is unchanged. Kind of assay: FACS on NUGC4_D8 cells endogenously expressing CLDN18.2. The source holds these as a separate data set.
Experimental: as §1

Substitutions are numbered along the chain they refer to.

T1 sequence (P56856 whole entry): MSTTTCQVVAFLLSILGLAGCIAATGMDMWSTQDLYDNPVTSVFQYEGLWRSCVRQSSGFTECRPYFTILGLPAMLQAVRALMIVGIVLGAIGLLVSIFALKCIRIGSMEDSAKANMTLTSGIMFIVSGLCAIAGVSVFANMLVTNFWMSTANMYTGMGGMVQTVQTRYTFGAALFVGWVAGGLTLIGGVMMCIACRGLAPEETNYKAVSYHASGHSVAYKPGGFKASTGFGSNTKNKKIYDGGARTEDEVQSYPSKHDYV

B1: PR003292 (antibody, human IgG1, kappa)
heavy: EVQLLESGGGLVQPGGSLRLSCAASGFTFSSFVMSWVRQAPGKGLEWVSTISGSGRSTYYADSVKGRFTISRDNSKNTLHLQMNSLRAEDTAVYYCAKDAAAAGTKFDYWGQGTLVTVSSASTKGPSVFPLAPSSKSTSGGTAALGCLVKDYFPEPVTVSWNSGALTSGVHTFPAVLQSSGLYSLSSVVTVPSSSLGTQTYICNVNHKPSNTKVDKKVEPKSCDKTHTCPPCPAPELLGGPSVFLFPPKPKDTLYITREPEVTCVVVDVSHEDPEVKFNWYVDGVEVHNAKTKPREEQYNSTYRVVSVLTVLHQDWLNGKEYKCKVSNKALPAPIEKTISKAKGQPREPQVYTLPPSREEMTKNQVSLTCLVKGFYPSDIAVEWESNGQPENNYKTTPPVLDSDGSFFLYSKLTVDKSRWQQGNVFSCSVMHEALHNHYTQKSLSLSPGK
light: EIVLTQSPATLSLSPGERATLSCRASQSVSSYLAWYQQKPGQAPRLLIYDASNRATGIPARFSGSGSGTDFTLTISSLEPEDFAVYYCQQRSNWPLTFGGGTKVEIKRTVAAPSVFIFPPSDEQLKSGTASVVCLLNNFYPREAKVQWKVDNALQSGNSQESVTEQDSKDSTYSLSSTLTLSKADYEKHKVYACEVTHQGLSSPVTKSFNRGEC
Turning to B1, the binding result in assay [1] is listed as “binds”.

B2: PR003293 (antibody, human IgG1, kappa)
heavy: B1 heavy with S242D, I335E
light: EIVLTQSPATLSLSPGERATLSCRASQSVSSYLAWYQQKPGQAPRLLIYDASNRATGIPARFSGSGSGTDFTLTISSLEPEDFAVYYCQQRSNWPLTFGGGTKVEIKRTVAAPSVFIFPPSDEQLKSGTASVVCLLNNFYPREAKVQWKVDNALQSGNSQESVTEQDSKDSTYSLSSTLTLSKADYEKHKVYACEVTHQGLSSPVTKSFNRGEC
In the case of B2, the binding result in assay [1] is recorded as “binds”.

B3: PR003340 (antibody, human IgG1, kappa)
heavy: EVQLLESGGGLVQPGGSLRLSCAASGFTFSSFVMSWVRQAPGKGLEWVSTISGSGRSTYYADSVKGRFTISRDNSKNTLHLQMNSLRAEDTAVYYCAKDAAAAGTKFDYWGQGTLVTVSSASTKGPSVFPLAPSSKSTSGGTAALGCLVKDYFPEPVTVSWNSGALTSGVHTFPAVLQSSGLYSLSSVVTVPSSSLGTQTYICNVNHKPSNTKVDKKVEPKSCDKTHTCPPCPAPELLGGPDVFLFPPKPKDTLMISRTPEVTCVVVDVSHEDPEVQFNWYVDGVEVHNAKTKPREEQFNSTFRVVSVLTVVHQDWLNGKEYKCKVSNKALPAPEEKTISKTKGQPREPQVYTLPPSREEMTKNQVSLTCLVKGFYPSDIAVEWESNGQPENNYKTTPPMLDSDGSFFLYSKLTVDKSRWQQGNVFSCSVMHEALHNHYTQKSLSLSPGK
light: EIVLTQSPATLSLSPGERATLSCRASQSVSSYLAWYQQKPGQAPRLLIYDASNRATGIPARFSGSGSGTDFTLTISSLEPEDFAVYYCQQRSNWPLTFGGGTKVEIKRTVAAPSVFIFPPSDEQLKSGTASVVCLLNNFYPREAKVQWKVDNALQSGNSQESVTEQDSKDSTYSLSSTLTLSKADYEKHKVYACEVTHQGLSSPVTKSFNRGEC
Consider B3, for which the binding result in assay [1] is reported as “binds”.

B4: PR003897 (antibody, human IgG1, kappa)
heavy: QVQLVESGGGLVQPGGSLRLSCATSGFTFSSYAMSWVRQAPGKGLEWVSLISGSGGSPYYADSVKGRFTISRDNSKNTLYLQMNSLRAEDTAVYYCAKGVVNWGSLFDYWGQGTLVTVSSASTKGPSVFPLAPSSKSTSGGTAALGCLVKDYFPEPVTVSWNSGALTSGVHTFPAVLQSSGLYSLSSVVTVPSSSLGTQTYICNVNHKPSNTKVDKKVEPKSCDKTHTCPPCPAPELLGGPDVFLFPPKPKDTLMISRTPEVTCVVVDVSHEDPEVQFNWYVDGVEVHNAKTKPREEQFNSTFRVVSVLTVVHQDWLNGKEYKCKVSNKALPAPEEKTISKTKGQPREPQVYTLPPSREEMTKNQVSLTCLVKGFYPSDIAVEWESNGQPENNYKTTPPMLDSDGSFFLYSKLTVDKSRWQQGNVFSCSVMHEALHNHYTQKSLSLSPGK
light: not shown
In the case of B4, the binding result in assay [2] and in assay [1] was “binds” throughout.

B5: IMAB362 analogue (antibody, human IgG1, kappa, V domains shown)
VH: QVQLQQPGAELVRPGASVKLSCKASGYTFTSYWINWVKQRPGQGLEWIGNIYPSDSYTNYNQKFKDKATLTVDKSSSTAYMQLSSPTSEDSAVYYCTRSWRGNSFDYWGQGTTLTVSS
VL: DIVMTQSPSSLTVTAGEKVTMSCKSSQSLLNSGNQKNYLTWYQQKPGQPPKLLIYWASTRESGVPDRFTGSGSGTDFTLTISSVQAEDLAVYYCQNDYSYPFTFGSGTKLEIKR
notes: Home-made positive control; variable region identical to IMAB362, a few amino acids differ in the constant region; also called PR000400
In the case of B5, the “EC50 (nM), ADCC with human PBMC on NUGC4_D8 cells” value in assay [3] came out at 0.91 nM. The “EC50 (nM), endocytosis in NUGC4_D8 cells (FACS)” value in assay [4] was found to be 0.4 nM. In addition, the EC50 in assay [5] was 20.7 nM; in assay [6], 4 nM. For the same molecule, the “EC50 (nM), CDC on HEK293 hCLDN18.2 cells” value in assay [7] is 1.07 nM.

B6: PR002725 (antibody, human IgG1, kappa, V domains shown)
VH: EVQLLESGGGLVQPGGSLRLSCAASGFTFSGYVMSWVRQAPGKGLEWVSAISGSGGSKYYADSVKGRFTISRDNSKNTLYLQMNSLRAEDTAVYYCAKGDIAVLLFDYWGQGTLVTVSS
VL: EMVMTQSPATLSVSPGERATLSCRASQSVSRNLAWFQQKPGQAPRLLIYGASTRATGIPARFSGSGSGTEFTLTISSLQSEDFAVYYCQQYNNWPLTFGGGTKVEIKR
notes: Human IgG1/kappa; also called clone 11C12-13C2
Take B6: in assay [1], the binding result is listed as “binds”.

B7: PR002727 (antibody, human IgG1, kappa, V domains shown)
VH: EVQLVESGGGVVQPGRSLRLSCAASGFTFSSYGMHWVRQAPGKGLEWVAVIWYDGSNKYYADSVKGRFTISRDNSKNTLYLQMNSLRAEDTAVYYCAKDGYYGSGTYYYYVMNAWGQGASVTVSS
VL: B6 VL with M2I, A19V, R31S, F36Y, N93Y
notes: Human IgG1/kappa; also called clone 31H3E2
As for B7, the binding result in assay [8] is “binds”.

Broadly, the EC50 is the concentration needed to bring the measured effect to its halfway point.

The values above are taken from US20260209344A1 (NONA BIOSCIENCES SUZHOU, published 2026).
